Molecular target: T1, SurR (Pyrococcus furiosus, UniProt Q8U4J2 1-232)
T1 sequence: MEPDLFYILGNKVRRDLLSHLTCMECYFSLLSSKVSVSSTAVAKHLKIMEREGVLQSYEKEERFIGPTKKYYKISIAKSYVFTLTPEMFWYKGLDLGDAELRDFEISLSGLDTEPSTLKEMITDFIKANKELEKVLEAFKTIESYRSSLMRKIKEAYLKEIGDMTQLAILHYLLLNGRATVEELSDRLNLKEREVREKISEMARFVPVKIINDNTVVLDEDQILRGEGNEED
Assay: EMSA

B1: SELEX-derived 40-bp probe GTTcacAAC (dsDNA)
DNA 1: GCTTCATCCGTGACGTTCACAACCAAATAGATTGAGGATC
DNA 2: GATCCTCAATCTATTTGGTTGTGAACGTCACGGATGAAGC
B1: binds.

From publication PMC2745277
